From patent US20070072177A1 (CRUCELL HOLLAND B V, published 2007)
Numbering of substitutions follows the chain as printed.

T1: rabies virus glycoprotein (G protein) of strain CVS-11 (rabies virus strain CVS-11, UniProt O92284 20-524)
T1 sequence: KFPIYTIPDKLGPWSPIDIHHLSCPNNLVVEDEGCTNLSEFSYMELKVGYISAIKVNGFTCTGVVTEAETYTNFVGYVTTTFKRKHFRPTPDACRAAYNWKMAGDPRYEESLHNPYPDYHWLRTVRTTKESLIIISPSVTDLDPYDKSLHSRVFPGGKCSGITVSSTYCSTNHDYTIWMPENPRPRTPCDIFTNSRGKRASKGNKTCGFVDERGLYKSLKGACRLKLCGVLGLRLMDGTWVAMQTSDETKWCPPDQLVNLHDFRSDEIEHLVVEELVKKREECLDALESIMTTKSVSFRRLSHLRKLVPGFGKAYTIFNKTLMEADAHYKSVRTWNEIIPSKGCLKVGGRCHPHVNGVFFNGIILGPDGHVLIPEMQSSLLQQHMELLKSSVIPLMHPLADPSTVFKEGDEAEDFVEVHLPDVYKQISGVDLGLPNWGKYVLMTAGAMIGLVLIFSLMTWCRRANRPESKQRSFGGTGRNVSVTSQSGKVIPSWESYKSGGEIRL

T2: glycoprotein of rabies virus strain CVS-11 (rabies virus strain CVS-11, UniProt O92284 20-524)
T2 sequence: T1 sequence

B1: CR04-098 (antibody, V domains shown)
VH: QVQLVESGGGAVQPGRSLRLSCAASGFTFSSYGMHWVRQAPGKGLEWVAVILYDGSDKFYADSVKGRFTISRDNSKNTLYLQMNSLRAEDTAVYYCAKVAVAGTHFDYWGQGTLVTVSS
VL: DIQMTQSPSSLSASVGDRVTITCRASQGIRNDLGWYQQKPGKAPKLLIYAASSLQSGVPSRFSGSGSGTDFTLTISSLQPEDFATYYCQQLNSYPPTFGGGTKVEIKT
B2: SC04-120 (scFv)
scFv: AMAEVQLVQSGGGLVQPGRSLRLSCAASGFTFSTYGMHWVRQAPGKGLEWVATISYDGSIKDYADSEKGRFTISRDNSKNTLYLQMNSLRAEDTAVYYCAKGGKTGEFDYWGQGTLVTVSSGTGGSGGTGSGTGGSTDIQLTQSPSTLSASVGDRVTITCRASQGINSYLAWYQQEPGKAPKLLIYAASTLQSGVPSRFSGSGSGTEFTLTISSLQPEDFATYYCQQLNSYPFTFGPGTKVDIKRAAA
B3: SC04-126 (scFv)
scFv: AMAQVTLKESGPTLVNPTQTLTLTCTFSGFSLSTGGVGVGWFRQPPGKALEWLARIDWDDDKYYSTSLKTRLTISKDTSKIQVVLTMTNMDPVDTATYYCARMGFTGTYFDYWGQGTLVTVSSGTGGSGGTGSGTGGSTQSVLTQPPSVSVAPGKTARITCGGNNIGSKSVHWYQQKPGQAPVLVIYYDSDRPSGIPERFSGSNSGNTATLTISRVEAGDEADYYCQVWDSSSDHPYVFGTGTKLTVLGAAA
B4: SC04-146 (scFv)
scFv: AMAEVQLVQSGGGVVQPGRSLRLSCAASGFTFSSYGMHWVRQAPGKGLEWVATISYDGSIKDYADSEEGRFTISRDNSKNTLYLQMNSLRAEDTAVYYCAKGGKTGEFDYWGQGTLVTVSSGTGGSGGTGSGTGGSTDVVMTQSPATLSVSPGESATLFCRASESVYSNLAWYQHKPGRAPRLLIYGASTRATGIPARFDGTGSGTDFTLTISSLQSEDFAVYYCQQYNDWPITFGQGTRLEIKRAAA
B5: SC04-140 (scFv)
scFv: AMAQMQLVQSGGGVVQPGRSLRLSCAASGFTFSSYGMHWVRQAPGKGLEWVAVILYDGSNKYYADSVKGRFTISRDNSKNALYLQMNSLRAEDTAVYYCAKVTNPGDAFDIWGQGTMVTVSSGTGGSGGTGSGTGGSTDIQMTQSPSSLSASVGDRVTITCRASQGISSALAWYQQKPGKAPKLLIYDASSLESGVPSRFSGSGSGTDFTLTISSLQPEDFATYYCQQFNSYPLTFGGGTKVEIKRAAA
B6: SC04-108 (scFv)
scFv: AMAEVQLVQSGGGLVQPGGSLRLSCAASGFTFSSYGMHWVRQAPGKGLEWVAVILYDGSDKFYADSVKGRFTISRDNSKDTLYLQMNSLRAEDTAVYYCAKFMIVADDAFDIWGQGTMVTVSSGTGGSGGTGSGTGGSTDIQLTQSPSSLSASVGDRVTITCRASQGISSHLVWYQQKPGKAPKSLIYAASSLQSGVPSRFSGSESATDFTLTISSLQPEDFATYYCQQYYSYPITFGQGTRLEIKRAAA
B7: SC04-144 (scFv)
scFv: AMAQVQLQELGGGVVQPGRSLRLSCAASGFTFGSYGMHWVRQAPGKGLEWVATISYDGSIKDYADSEKGRFTISRDNSKNTLYLQMNSLRAEDTAVYYCAKGGKTGEFDYWGQGTLVTVSSGTGGSGGTGSGTGGSTDIQLTQSPSSLSASVGDRVTITCRASQGISSYLAWYQQKPGKGPKLLIYAASTLQSGVPSRFSGSGSGTDFSLTISSLQPEDLATYYCQQYDSYPLTFGGGTKVEIKRAAA
B8: SC04-125 (scFv)
scFv: AMAQVQLVESGGGVVQPGRSLRLSCAASGFTFSSYGMHWVRQAPGKGLEWVAVISYDGSDKYYADSVKGRFTISRDNSKNTLYLQMNSLRAEDTAVYYCAKIATAGTGFDYWGQGTLVTVSSGTGGSGGTGSGTGGSTDIQMTQSPSSVSASVGDRVTITCRASQGISSYLAWYQQKPGKAPKLLIYDASSLESGVPSRFSGSGSGTEFTLTISSLQPDDFATYYCQQLNSYPLTFGGGTKVEIKRAAA
B9: CRJB (antibody, V domains shown)
VH: QITLKETGPTLVKPTQTLTLTCTFSGFSLSTSGVGVGWIRQPPGKALEWVTLIYWDDDKRYSPSLENRVTIRKDTSKNQVALTMTNMDPLDTGTYYCAHRQHISSFPWFDSWGQGTLVTVSS
VL: SYVLTQPPSVSVAPGKTARINCGGNNIEYRSVHWYQQKSGQAPVAVIYDNSDRPSGIPERFSGSKSGNTATLTISRVEAGDEADYYCQVWDISSDVVFGGGTKLTVLG
B10: CR57 (antibody, V domains shown)
VH: QVQLVQSGAEVKKPGSSVKVSCKASGGTFNRYTVNWVRQAPGQGLEWMGGIIPIFGTANYAQRFQGRLTITADESTSTAYMELSSLRSDDTAVYFCARENLDNSGTYYYFSGWFDPWGQGTLVTVSS
VL: QSALTQPRSVSGSPGQSVTISCTGTSSDIGGYNFVSWYQQHPGKAPKLMIYDATKRPSGVPDRFSGSKSGNTASLTISGLQAEDEADYYCCSYAGDYTPGVVFGGGTKLTVLG
B11: CR04-010 (antibody, V domains shown)
VH: QVQLVESGGDLVQPGRSLRLSCAASGFTFSSYGMHWVRQAPGKGLEWVADISYDGSNKYYADSVKGRFTISRDNSKNTLYLQMNSLRAEDTAVYYCAKDGLDLTGTIQPFGYWGQGTLVTVSS
VL: B1 VL with D1A, Q89L, L91D, N92Y, S93N, P96R, G100Q, T108R

biological target: T3, purified rabies virus glycoprotein (rabies virus ERA strain) (rabies virus strain ERA, UniProt P03524 20-524); experiment: SPR (BIAcore3000), ERA glycoprotein amine-coupled to CM5 chip, antibody injected

| Binder | Kd [nM] |
| --- | --- |
| B1 | 4.5 |

biological target: T3, purified rabies virus glycoprotein …; experiment: phage ELISA on coated purified G protein (ERA), anti-M13-HRP

| Binder | OD 492 nm [OD 492 nm] |
| --- | --- |
| B2 | 0.571 |
| B3 | 0.232 |
| B4 | 0.484 |
| B5 | 0.865 |
| B6 | 0.363 |
| B7 | 0.775 |
| B8 | 0.735 |

biological target: T1, rabies virus glycoprotein (G protein) …; experiment: cell-based or functional assay

| Binder | Neutralizing potency (modified RFFIT) [IU/mg] |
| --- | --- |
| B9 | 605 |
| B10 | 3800 |
| B11 | 3000 |

biological target: T2, glycoprotein of rabies virus strain …; experiment: cell-based or functional assay

| Binder | Potency (IU/ml) |
| --- | --- |
| B2 | 6 |
| B3 | 0.1 |
| B4 | 3 |
| B5 | 1 |
| B6 | 1 |
| B7 | 6 |
| B8 | 3 |
